Data on 1 substance can be found in patent EP4424820A1.

This assay concerns the target NRPS-13 subunit B: SZ18 at the N-terminus of the C-terminal part of XtpS, split in the A-T linker of module two (Xenorhabdus nematophila ATCC 19061). The assay can be described thus: cell-based or functional assay.

Sequence of NRPS-13 subunit B: SZ18 at the N-terminus of the C-terminal part of XtpS, split in the A-T linker of module two (Xenorhabdus nematophila ATCC 19061) (chain, as listed by the source): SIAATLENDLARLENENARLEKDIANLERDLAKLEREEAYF

The substance “NRPS-13 subunit A: N-terminal part of XtpS, split in the A-T linker of module two, with SZ17 at its C-terminus (enzyme)” displayed a peptide yield of xenotetrapeptide 1 by the split synthetase NRPS-13 produced in E. coli DH10B::mtaA (HPLC-MS/MS) of 155 mg/L.
